Laboratory results taken from the supplement of paper PMC9112550, “Optimization of the antimicrobial peptide Bac7 by deep mutational scanning” (BMC Biology, 2022).

Tested on: Escherichia coli TOP10
Assay: shrunken log2 fold change of peptide-encoding DNA abundance (4.5 h post-induction vs induction); higher = less antimicrobial activity (less host growth inhibition)
Details: time post-induction: 4.5 h; library: site-saturation at positions 5, 18, 19, 20
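Note: peptides expressed intracellularly from a pBAD plasmid library in pooled LB shake-flask culture, induced with 0.3% L-arabinose, DNA abundance read by NGS, three biological replicates, DESeq2 with apeglm shrinkage.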

| Sequence | shrunken log2 fold change |
| --- | --- |
| RRIRWRPPRLPRPRPRPFWPPRP | 0.161 |
| RRIRDRPPRLPRPRPRPSFKPRP | -0.0471 |
| RRIRHRPPRLPRPRPRPYNTPRP | -1.01 |
| RRIRTRPPRLPRPRPRPYSTPRP | -0.0702 |
| RRIRFRPPRLPRPRPRPFKWPRP | -0.269 |
| RRIRRRPPRLPRPRPRPIMMPRP | -0.00819 |
| RRIRKRPPRLPRPRPRPNYCPRP | -0.0369 |
| RRIRFRPPRLPRPRPRPRVEPRP | 0.61 |
| RRIRKRPPRLPRPRPRPQQWPRP | 0.105 |
| RRIRLRPPRLPRPRPRPDNVPRP | 0.0219 |
| RRIRMRPPRLPRPRPRPPRAPRP | 1.78 |
| RRIRCRPPRLPRPRPRPKTLPRP | -0.246 |
| RRIRMRPPRLPRPRPRPECNPRP | 0.0477 |
| RRIRMRPPRLPRPRPRPHINPRP | -0.339 |
| RRIRARPPRLPRPRPRPHTRPRP | 0.0581 |
| RRIRIRPPRLPRPRPRPFHVPRP | -0.121 |
| RRIRERPPRLPRPRPRPKYWPRP | -0.202 |
| RRIRIRPPRLPRPRPRPGRFPRP | 0.138 |
| RRIRTRPPRLPRPRPRPMTNPRP | -0.138 |
| RRIRVRPPRLPRPRPRPWWSPRP | 0.0392 |
| RRIRSRPPRLPRPRPRPCKKPRP | -0.121 |
| RRIRCRPPRLPRPRPRPCVNPRP | -0.106 |

| Sequence | shrunken log2 fold change |
| --- | --- |
| RRIRCRPPRLPRPRPRPQKCPRP | -0.0526 |
| RRIRYRPPRLPRPRPRPACEPRP | -0.0778 |
| RRIRHRPPRLPRPRPRPRFQPRP | 0.00482 |
| RRIRQRPPRLPRPRPRPFSPPRP | -0.0643 |
| RRIRRRPPRLPRPRPRPLATPRP | 0.882 |
| RRIRYRPPRLPRPRPRPHAFPRP | 0.0566 |
| RRIRYRPPRLPRPRPRPCTYPRP | -0.194 |
| RRIRIRPPRLPRPRPRPVEWPRP | 0.0101 |
| RRIRHRPPRLPRPRPRPCNHPRP | -0.292 |
| RRIRDRPPRLPRPRPRPCAEPRP | 0.508 |
| RRIRARPPRLPRPRPRPDIAPRP | 0.668 |
| RRIRPRPPRLPRPRPRPGHWPRP | 0.123 |
| RRIRNRPPRLPRPRPRPRESPRP | -0.0379 |
| RRIRYRPPRLPRPRPRPMHLPRP | -0.00136 |
| RRIRRRPPRLPRPRPRPRVAPRP | 0.875 |
| RRIRLRPPRLPRPRPRPEAIPRP | 0.0246 |
| RRIRCRPPRLPRPRPRPKMLPRP | -0.0357 |
| RRIRWRPPRLPRPRPRPDSIPRP | -0.243 |
| RRIRRRPPRLPRPRPRPMSSPRP | -0.00615 |
| RRIRDRPPRLPRPRPRPHRGPRP | -0.0201 |
| RRIRLRPPRLPRPRPRPFCWPRP | 0.231 |
| RRIRVRPPRLPRPRPRPAPPPRP | 0.577 |

| Sequence | shrunken log2 fold change |
| --- | --- |
| RRIRFRPPRLPRPRPRPPHSPRP | 0.386 |
| RRIRWRPPRLPRPRPRPPRLPRP | 0.526 |
| RRIRLRPPRLPRPRPRPWKFPRP | -0.00232 |
| RRIRFRPPRLPRPRPRPQYHPRP | -1.15 |
| RRIRCRPPRLPRPRPRPLCQPRP | -0.949 |
| RRIRCRPPRLPRPRPRPGIEPRP | -0.0627 |
| RRIRARPPRLPRPRPRPAESPRP | 0.531 |
| RRIRGRPPRLPRPRPRPYQPPRP | -0.257 |
| RRIRERPPRLPRPRPRPFKHPRP | -0.255 |
| RRIRLRPPRLPRPRPRPYPSPRP | 0.085 |
| RRIRFRPPRLPRPRPRPDLFPRP | 0.0316 |
| RRIRVRPPRLPRPRPRPRRVPRP | 0.256 |
| RRIRVRPPRLPRPRPRPYFSPRP | -0.267 |
| RRIRNRPPRLPRPRPRPHKEPRP | 0.0155 |
| RRIRRRPPRLPRPRPRPPHTPRP | 0.879 |
| RRIRVRPPRLPRPRPRPQVLPRP | 0.00638 |
| RRIRQRPPRLPRPRPRPQMRPRP | -0.0736 |
| RRIRGRPPRLPRPRPRPSHVPRP | -0.141 |
| RRIRWRPPRLPRPRPRPNQYPRP | -0.113 |
| RRIRQRPPRLPRPRPRPQIQPRP | -0.411 |
| RRIRGRPPRLPRPRPRPCGSPRP | 0.107 |
| RRIRMRPPRLPRPRPRPGSRPRP | 0.991 |

| Sequence | shrunken log2 fold change |
| --- | --- |
| RRIRPRPPRLPRPRPRPYCEPRP | -0.337 |
| RRIRNRPPRLPRPRPRPPVYPRP | 0.111 |
| RRIRNRPPRLPRPRPRPDNVPRP | -0.0161 |
| RRIRFRPPRLPRPRPRPTHTPRP | 0.186 |
| RRIRKRPPRLPRPRPRPDYNPRP | -0.0745 |
| RRIRYRPPRLPRPRPRPRFEPRP | -0.386 |
| RRIRQRPPRLPRPRPRPVKDPRP | -0.03 |
| RRIRDRPPRLPRPRPRPPCTPRP | 0.00986 |
| RRIRARPPRLPRPRPRPSPNPRP | 0.0681 |
| RRIRVRPPRLPRPRPRPDDEPRP | -0.125 |
| RRIRARPPRLPRPRPRPLLFPRP | 0.212 |
| RRIRCRPPRLPRPRPRPYINPRP | -0.968 |
| RRIRWRPPRLPRPRPRPLLPPRP | 0.676 |
| RRIRQRPPRLPRPRPRPQSPPRP | -0.0301 |
| RRIRPRPPRLPRPRPRPGNAPRP | 0.34 |
| RRIRYRPPRLPRPRPRPACTPRP | -0.292 |
| RRIRMRPPRLPRPRPRPRPDPRP | 0.937 |
| RRIRQRPPRLPRPRPRPCFRPRP | -0.155 |
| RRIRPRPPRLPRPRPRPPKKPRP | 0.0716 |
| RRIRPRPPRLPRPRPRPGIRPRP | 0.105 |
| RRIRKRPPRLPRPRPRPAVQPRP | 0.195 |
| RRIRIRPPRLPRPRPRPREIPRP | -0.0162 |

| Sequence | shrunken log2 fold change |
| --- | --- |
| RRIRQRPPRLPRPRPRPIDEPRP | 3.38 |
| RRIRHRPPRLPRPRPRPGRVPRP | -0.129 |
| RRIRNRPPRLPRPRPRPYPRPRP | 0.0154 |
| RRIRQRPPRLPRPRPRPFAVPRP | -0.99 |
| RRIRLRPPRLPRPRPRPPCCPRP | -0.0934 |
| RRIRLRPPRLPRPRPRPTTQPRP | 0.216 |
| RRIRPRPPRLPRPRPRPGDIPRP | -0.027 |
| RRIRPRPPRLPRPRPRPRRRPRP | 0.41 |
| RRIRKRPPRLPRPRPRPAEYPRP | 0.345 |
| RRIRVRPPRLPRPRPRPWKFPRP | -0.00968 |
| RRIRGRPPRLPRPRPRPNACPRP | 0.212 |
| RRIRKRPPRLPRPRPRPPDYPRP | 0.145 |
| RRIRGRPPRLPRPRPRPPFKPRP | 0.659 |
| RRIRARPPRLPRPRPRPKTVPRP | 0.141 |
| RRIRWRPPRLPRPRPRPYQSPRP | -0.583 |
| RRIRWRPPRLPRPRPRPRAEPRP | 0.621 |
| RRIRKRPPRLPRPRPRPVEIPRP | 0.0372 |
| RRIRFRPPRLPRPRPRPAVIPRP | -0.0689 |
| RRIRWRPPRLPRPRPRPATTPRP | 0.859 |
| RRIRFRPPRLPRPRPRPSCAPRP | -0.22 |
| RRIRGRPPRLPRPRPRPNPNPRP | 0.215 |
